Measurements from the supplement of paper PMC12042874.
± gives the uncertainty stated by the source.

Experiment: amyloid nucleation score (Sup35N fusion, yeast selection) (log enrichment); library NNK1; higher = more nucleation; inactive = no reads after selection
Summary of the method: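 Random libraries were run with three technical output replicates. In each, psi-negative yeast expressing Sup35N fused to peptides of 20 random codons were induced 24 hours with 100 μM copper sulfate and grown 7 days at 30°C on medium lacking adenine and uracil, and input and output plasmid inserts were Illumina-sequenced. The nucleation score is the DiMSum log enrichment of output over input reads, centred on the mode score of non-aggregating sequences, and sequences under 100 input reads were excluded.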

| Substance | amyloid nucleation score |
| --- | --- |
| GTTLDYWRVMEMSGDFTSFC | -0.073 ± 0.68 |
| GTYRRQKMELMYSSLGLFGC | -0.634 ± 0.56 |
| GVALFVIGLNSQIVANSYTS | 6.285 ± 0.055 |
| GVAWMFLCYVLAA | 0.575 ± 0.27 |
| GVCVEFCLRGSRFWLMKNKA | 0.383 ± 0.84 |
| GVCWLKIRALPDSYWLVFL | -0.776 ± 0.74 |
| GVDGFWRMVSKLPHGRLDQH | -0.123 ± 0.38 |
| GVDSFTDSIEYKVGRRVFRH | 1.21 ± 0.76 |
| GVFMKYQ | 0.18 ± 1.2 |
| GVGLDCFDRTWFWMFQTPQC | 0.483 ± 0.35 |
| GVGSSFSTSKAYWVGYECIT | -0.217 ± 0.41 |
| GVLEVIYVSLFRGRAESVFR | 1.67 ± 0.34 |
| GVLRHNCFIESGRIISVMVT | -0.404 ± 0.65 |
| GVLVKNQGLLVNAIHSMQTN | -0.797 ± 2.4 |
| GVMACDMCCPNKRVSEPRAS | -0.278 ± 0.41 |
| GVMIWRQRWRKVIVGGALRW | -0.217 ± 0.63 |
| GVNCKYVVLKNNVIWTHCLR | 6.453 ± 0.05 |
| GVPDFA | 0.685 ± 0.7 |
| GVQAVSSPTSVFK | 0.462 ± 0.85 |
| GVQFQVVRMSCSVLSARLRL | 1.29 ± 0.18 |
| GVSVSYLDGGMAWPNEGGRK | 0.19 ± 0.62 |
| GWCRG | inactive |

| Substance | amyloid nucleation score |
| --- | --- |
| GWENSLYNFFCLW | 0.342 ± 0.35 |
| GWIVAMRKR | 0.236 ± 1.6 |
| GWMVRMLEHYHPAV | -0.226 ± 0.42 |
| GWNVTEIYFFMWVRITSGWM | 2.27 ± 0.19 |
| GWYSFLPSRNYFK | 4.92 ± 0.072 |
| GYGWFLCTIHVQKLVCWPTL | -0.114 ± 1.1 |
| GYHSFGLVHEGETGK | inactive |
| GYHSKFRWVLLFVVTSASGE | inactive |
| GYHSMLSLDDQIFVKLHDAK | 0.135 ± 1.2 |
| GYLSGSMSDETGTPDMCTRG | 0.353 ± 0.51 |
| GYVDPFRLYQGLMIFDYVGS | -0.332 ± 0.44 |
| HAIFCLSKLTFLGPILGSFT | 7.112 ± 0.048 |
| HAKHLLRKQWLDGCA | inactive |
| HANCG | -0.155 ± 0.59 |
| HASWVRAITWVHQAGTYVML | -0.693 ± 1.3 |
| HCCFTGRKGYSRFAVLSCST | 1.11 ± 0.48 |
| HCLGIRMVRRYILDRRCHWV | inactive |
| HCMLGMFHWVRRQVYRSTKW | 2.34 ± 0.25 |
| HCRKYTKTSR | -0.327 ± 0.47 |
| HDGLLVFAFHY | -0.378 ± 1.4 |
| HELMLQILGLAFLLGMFAGV | -0.747 ± 0.63 |
| HFLTDMNFKRARDSDLSSVW | 0.489 ± 0.29 |

| Substance | amyloid nucleation score |
| --- | --- |
| HFVILVLFMMMSSIGMVTRA | 5.16 ± 0.054 |
| HFWLDARSRAKKPAQGIIKG | -0.426 ± 0.34 |
| HGGKCLSMRYRDCALWTFQG | 0.031 ± 1.2 |
| HGGRDVCDKGVSSRGHRW | 0.276 ± 0.79 |
| HGLKWGFQLTNLSMLVTSCM | -0.475 ± 1.1 |
| HHAGPSG | 0.72 ± 0.46 |
| HHALHAKAERLTPPMPPCKM | 0.714 ± 0.84 |
| HHCHSSGL | 0.981 ± 0.93 |
| HHGRFRCKAVCRRKCGLVQV | inactive |
| HIFWYCHMFPVVMASIIINS | 0.637 ± 0.59 |
| HILRIWLRGLWMILYRTYEN | -0.513 ± 0.84 |
| HLLRRHYNCLSHLGWCNGLF | -0.024 ± 0.29 |
| HLNLIVTRFASIWVAAFMCR | -0.282 ± 0.77 |
| HLPFYLCF | 1.57 ± 0.43 |
| HLPTKLPSRIRYRCYDFHVI | -0.546 ± 0.97 |
| HLSSTVITLVPCRLEMYLEG | 0.55 ± 0.25 |
| HLYGVR | 0.267 ± 0.84 |
| HMITSLRWSSLRSWTQVWLR | inactive |
| HMRGLG | 6.77 ± 0.083 |
| HMSDNGLSSMKRVYVVYPTT | -0.049 ± 0.23 |
| HMSWMYEWMNVTCKVNMCR | 2.06 ± 0.24 |
| HNCCDEVCGSNSGLFFRFMN | 0.979 ± 0.65 |

| Substance | amyloid nucleation score |
| --- | --- |
| HNYSDFFNESWHNGLIYSY | -0.571 ± 1 |
| HPMITRFLAD | 0.413 ± 1.4 |
| HQINRWRLLPRGGTFKDGHN | 0.703 ± 0.54 |
| HQLGQYHTACHAPSARCTPL | -0.221 ± 0.52 |
| HQYVMFESLTYICLPLRDRL | 4.98 ± 0.1 |
| HRCQSSSRRPMNGFGTCQRS | 0.321 ± 0.34 |
| HRGLSLLAGVSALVWKSQMT | -0.4 ± 1.1 |
| HRGVLQLR | 0.764 ± 0.84 |
| HRITSFVYYFGLSSEFYIYP | 0.009 ± 1.1 |
| HRIWRLLALNT | -0.583 ± 0.54 |
| HRNSCVPPGVAGIVTVCL | 0.363 ± 0.6 |
| HRYRGRNLLILCRNDDWCDF | 1.26 ± 0.47 |
| HSASQLPYYQY | 0.498 ± 0.97 |
| HSCSVPLWIWRFSVRAKGCK | 0.562 ± 0.57 |
| HSDVHNCFLLCRCTGYCLYS | 3.96 ± 0.16 |
| HSGTSCWVGIIDV | -0.248 ± 0.28 |
| HSHHGSSV | 1.08 ± 0.76 |
| HSIERTWPVRRPKCESKLKF | -0.91 ± 1.3 |
| HSRRCYNESS | 1.7 ± 0.55 |
| HSSDMCLSGLM | 0.002 ± 1.4 |
